Source: patent US20240368668A1, “SUBSTRATES AND BIOMARKERS OF ADAMTS7” (The Broad Institute, Inc., priority 2021, published 2024)

Molecular target: T1, mouse ADAMTS7 (Mus musculus, UniProt Q68SA9)
T1 construct: Full-length mouse Adamts7 1-1857 (Uniprot Q68SA9, WT or E373Q catalytic mutant); expressed in transfected cells; host or cells: Human Coronary Artery Smooth Muscle Cells (HCA-SMC, Lonza), adenovirus 50 MOI
T1 sequence (Q68SA9 221-1657): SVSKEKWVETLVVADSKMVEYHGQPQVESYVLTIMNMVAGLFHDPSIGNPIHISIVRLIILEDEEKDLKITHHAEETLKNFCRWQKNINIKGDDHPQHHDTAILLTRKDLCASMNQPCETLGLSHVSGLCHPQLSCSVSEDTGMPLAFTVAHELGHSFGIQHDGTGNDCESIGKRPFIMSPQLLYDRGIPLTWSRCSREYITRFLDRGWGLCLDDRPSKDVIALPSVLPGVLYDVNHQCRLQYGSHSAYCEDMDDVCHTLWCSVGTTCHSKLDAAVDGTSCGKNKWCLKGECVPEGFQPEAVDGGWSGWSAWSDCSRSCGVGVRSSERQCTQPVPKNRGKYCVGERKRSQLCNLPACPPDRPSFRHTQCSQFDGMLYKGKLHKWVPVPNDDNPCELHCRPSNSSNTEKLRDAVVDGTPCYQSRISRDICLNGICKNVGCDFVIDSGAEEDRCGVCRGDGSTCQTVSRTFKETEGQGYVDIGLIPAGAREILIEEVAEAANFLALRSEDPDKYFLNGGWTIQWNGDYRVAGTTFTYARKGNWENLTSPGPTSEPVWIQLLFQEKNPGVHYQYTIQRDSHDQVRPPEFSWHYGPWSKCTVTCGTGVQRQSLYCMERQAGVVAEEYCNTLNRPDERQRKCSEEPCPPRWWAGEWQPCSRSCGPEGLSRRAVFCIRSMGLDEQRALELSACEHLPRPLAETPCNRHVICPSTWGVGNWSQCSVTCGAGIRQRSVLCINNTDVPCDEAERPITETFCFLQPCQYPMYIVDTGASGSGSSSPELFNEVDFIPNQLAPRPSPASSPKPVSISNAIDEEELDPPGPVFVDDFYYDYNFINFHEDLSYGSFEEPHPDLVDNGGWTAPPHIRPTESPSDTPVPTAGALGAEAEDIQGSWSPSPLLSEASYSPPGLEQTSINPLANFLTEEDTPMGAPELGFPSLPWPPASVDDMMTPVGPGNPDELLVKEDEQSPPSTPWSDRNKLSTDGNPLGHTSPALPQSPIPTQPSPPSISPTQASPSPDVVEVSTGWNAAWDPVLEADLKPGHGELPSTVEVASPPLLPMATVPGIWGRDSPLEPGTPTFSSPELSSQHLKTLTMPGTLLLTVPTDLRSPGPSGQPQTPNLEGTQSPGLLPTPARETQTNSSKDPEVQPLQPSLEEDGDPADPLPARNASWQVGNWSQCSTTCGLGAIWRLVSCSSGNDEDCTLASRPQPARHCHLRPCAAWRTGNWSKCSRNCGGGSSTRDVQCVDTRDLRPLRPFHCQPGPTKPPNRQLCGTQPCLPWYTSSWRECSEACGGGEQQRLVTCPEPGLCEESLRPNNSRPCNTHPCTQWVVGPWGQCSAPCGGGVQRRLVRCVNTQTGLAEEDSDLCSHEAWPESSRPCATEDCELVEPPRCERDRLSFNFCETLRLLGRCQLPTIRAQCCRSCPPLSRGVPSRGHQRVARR
Experiment: TMT10 TAILS N-terminomics, HUVEC experiment (process replicates, trypsin/AspN digest)
Type: cell-based, human
Conditions: HUVEC TAILS HC; log fold change of N-terminal peptide, Ad-mADAMTS7 WT over Luc
Description: ADAMTS7 Expression, Cell Culture and Preparation of the Secreted Proteins—Full-length mouse Adamts7 1-1857 (Uniprot Q68SA9, WT or E373Q catalytic mutant) with a carboxyl terminal 3xFLAG tag was used to generate custom adenoviruses as previously described. Adeno-CMV-Luciferase (Ad-Luc) from Vector Biolabs was used as a negative control. Human Coronary Artery Smooth Muscle Cells (HCA-SMC) were obtained from Lonza and expanded in Lonza SmGM-2 media in 15 cm tissue culture plates. Twenty-four hours before media collection, near confluent plates were transduced with 50 MOI adenovirus and switched to Lonza Basal SM media with volumes of 20 ml per 15 cm plate. Expression of the Flag tagged ADAMTS7 was confirmed from the media using western blot and detected using the anti-Flag M2-HRP antibody (Sigma, A8592). Collected media was processed by adding protease inhibitors (1 mM EDTA and 1 mM PMSF) and clarified by 500 g×5 min spin at 4 C to pellet cell debris. Cell media supernatants were then passed through a 0.22 um filter and kept chilled. Processed media was then concentrated 50-100× using 3 kDa Centricon Plus-70 filter unit, spun at 3,500 g×60 min at 4 C. Approximately 10% of the processed, concentrated media was set aside for total secretome proteolytic analysis. The remaining 90% of the processed, concentrated media was buffer exchanged into 50 mM HEPES pH 8.0, 150 mM NaCl (2×50 ml) using the 3 kDa Centricon Plus-70 filter unit and concentrated to >2 mg/ml to serve as input for the TAILS experiment. Secretome and TAILS input samples were stored at −80° C.
For the first experiment, referred to as SMC1, 120 ml of media from 6×15 cm dishes was pooled from each condition (Luc, WT, EQ) and processed to produce three separate inputs for the TAILS experiment. Luc, WT and EQ inputs from the SMC1 experiment were each divided into triplicate 400 ug samples to generate technical replicate TAILS data. For the second experiment, referred to as SMC2, media was processed separately in triplicate for each condition (Luc1, Luc2, Luc3, WT1, WT2, WT3, EQ1, EQ2, EQ3) using 60 ml of media from 3×15 cm dishes for each process replicate. Inputs from the SMC2 experiment used process replicates of 300 ug each to generate TAILS data. The third experiment used input from cultured Human umbilical vein endothelial cells (HUVEC) from Lifeline Cell Technology grown in VascuLife Media and transduced in Lifeline Basal EC (+bFGF2 10 ng/ml). The HUVEC experiment used the same strategy as the SMC2 experiment, with 40 ml of media from 2×15 cm dishes for each process replicate and used 200 ug each to generate TAILS data. Inputs for process replicate experiments were restricted to the lowest concentration from the 9 parallel samples for SMC2 or HUVEC.
TMT10 isotopic labeling and negative selection of non-labeled peptides-Sample preparation was performed based on the TAILS protocol from the Overall lab with some modifications. From a single experiment, nine parallel protein samples in 50 mM HEPES pH 8.0, 150 mM NaCl were separately denatured with guanidinium chloride (Sigma, G4505) to reach a final concentration of 2.5M guanidinium chloride and 250 mM HEPES and incubated at 65° C. for 15 min. Reduction was achieved through addition of tris(2-carboxylethyl) phosphine (TCEP) at a final concentration of […] and incubated at 65° C. for 45 min. Alkylation reaction was performed with addition of iodoacetamide (IAA, Sigma, A3221) to a final concentration of 10 mM IAA for 15 min at room temperature in the dark. Following denaturation, reduction and alkylation steps, ten percent of each of the nine parallel protein samples was removed and combined to serve as a pooled reference. Isobaric tags were added to free amine groups using the TMT10plex Isobaric Mass Tagging Kit (ThermoFisher, 90113) with TMT channels randomly assigned to the nine samples and TMT 131 assigned to the pooled reference. […]

| Substance | logFC.mWT.over.Luc |
| --- | --- |
| EFEMP1_124 (AVAGPEMQTGR; listed as Homo sapiens) | 2.92 |
| FBN1_29 (LEAGNVKETR; listed as Homo sapiens) | 3.57 |
| FN1_1656 (SSSPVTGYR; listed as Homo sapiens) | 1.56 |
| FN1_36 (MVQPQSPVAVSQSKPGCYDNGKHYQINQQWER; listed as Homo sapiens) | 2.98 |
| HSPG2_2331 (ANLAYPAGSTQPIR; listed as Homo sapiens) | 1.72 |
| LTBP1_393 (LTATNFR; listed as Homo sapiens) | 3.14 |
| FLNA_1285 (LTQTGGPHVKAR; listed as Homo sapiens) | 3.29 |
| FN1_1143 (LTPGVEYVYTIQVLR; listed as Homo sapiens) | 3.43 |
| LOX_124 (WFQAGYSTSR; listed as Homo sapiens) | 3.38 |

Continued, values first:

| logFC.mWT.over.Luc | Substance |
| --- | --- |
| 2.82 | LOXL2_37 (FQQPAPEYHQPQAPANVAKIQLR; listed as Homo sapiens) |
| 1.61 | FN1_886 (NQESTPVVIQQETTGTPR; listed as Homo sapiens) |
| 2.45 | FN1_40 (QSPVAVSQSKPGCYDNGKHYQINQQWER; listed as Homo sapiens) |
| 1.86 | IGFBP7_101 (AAGGPGVSGVCVCKSR; listed as Homo sapiens) |
| 3.77 | AEBP1_37 (FLEGFLSELEPEPR; listed as Homo sapiens) |
